Among the data in the RNAGym collection of RNA variant scans (doi:10.7554/elife.80360) are self-cleavage values, retold here.

B1: Hairpin Ribozyme (parent)
chain: GUCCUCUUUCACGUGCGCGUGAAAGAGAGAAGUGAACCAGAGAAACACACGUUGUGGUAUAUUACCUGGUA

The variants in the data set derive from B1. Kind of data set: self-cleavage, relative activity (ratio to wild type); higher = more cleavage; co-transcriptional.
As for GUCCUCUUUCACGUGCGCGUGAAAGAGAGAGGUGAACCAUAGAAACACACGUUGUGGUAUAUUACCUGGUA [A31G G40U], the self-cleavage is 0.168. On to GUCCUCUUUCACGUGCGCGUGAAAGAGAGAGGUGAACCACAGAAACACACGUUGUGGUAUAUUACCUGGUA [A31G G40C], for which the self-cleavage is 0.247.

As to GUCCUCUUUCACGUGCGCGUGAAAGAGAGAGGUGAACCAAAGAAACACACGUUGUGGUAUAUUACCUGGUA [A31G G40A], the self-cleavage is 0.179. Under GUCCUCUUUCACGUGCGCGUGAAAGAGAGAGGUGAACCAGAGAAACACACGUUGUGGUAUAUUACCUGUUA [A31G G69U] stands 0.258; under GUCCUCUUUCACGUGCGCGUGAAAGAGAGAGGUGAACCAGAGAAACACACGUUGUGGUAUAUUACCUGAUA [A31G G69A], 0.178. The same measure for GUCCUCUUUCACGUGCGCGUGAAAGAGAGACGUGAACCAGAGAAACACACGUUGUGGUAUAUUACCUGGUC [A31C A71C]: 0.202; for GUCCUCUUUCACGUGCGCGUGAAAGAGAGACGUGAACCAGAGAAACACACGUUGUGGUAUAUUACCUGGUG [A31C A71G]: 0.212.

Regarding GUCCUCUUUCACGUGCGCGUGAAAGAGAGAGGUGAACCAGAGAAACACACGUUGUUGUAUAUUACCUGGUA [A31G G56U], the self-cleavage is 0.106.

With GUCCUCUUUCACGUGCGCGUGAAAGAGAGAGGUGAACCAGAGAAACACACGUUGUCGUAUAUUACCUGGUA [A31G G56C], the self-cleavage was found to be 0.164. Regarding GUCCUCUUUCACGUGCGCGUGAAAGAGAGACCUGAACCAGAGAAACACACGUUGUGGUAUAUUACCUGGUA [A31C G32C], the self-cleavage came out at 0.228.

As to GUCCUCUUUCACGUGCGCGUGAAAGAGAGACGUGAACCAGAGAAACACACGUUGUGGUAUAUUACCGGGUA [A31C U67G], the self-cleavage was determined as 0.0719.

Regarding GUCCUCUUUCACGUGCGCGUGAAAGAGAGAGGUGAACCAGAGAAACACACGUUGUGUUAUAUUACCUGGUA [A31G G57U], the self-cleavage stood at 0.23. Under GUCCUCUUUCACGUGCGCGUGAAAGAGAGACGUGAACCAGAGAAACACACGUUGUGGUAUAUAACCUGGUA [A31C U63A] stands 0.162; under GUCCUCUUUCACGUGCGCGUGAAAGAGAGAGGUGAACCAGAGAAACACACGUUGAGGUAUAUUACCUGGUA [A31G U55A], 0.105. The same measure for GUCCUCUUUCACGUGCGCGUGAAAGAGAGACGUGAACCAGAGAAACACACGUUGUGGUAUAUUAGCUGGUA [A31C C65G]: 0.116; for GUCCUCUUUCACGUGCGCGUGAAAGAGAGACGUGAACCACAGAAACACACGUUGUGGUAUAUUACCUGGUA [A31C G40C]: 0.0931; for GUCCUCUUUCACGUGCGCGUGAAAGAGAGAGGCGAACCAGAGAAACACACGUUGUGGUAUAUUACCUGGUA [A31G U33C]: 0.0729. Under GUCCUCUUUCACGUGCGCGUGAAAGAGAGAGGAGAACCAGAGAAACACACGUUGUGGUAUAUUACCUGGUA [A31G U33A] stands 0.165; under GUCCUCUUUCACGUGCGCGUGAAAGAGAGAGGUGACCCAGAGAAACACACGUUGUGGUAUAUUACCUGGUA [A31G A36C], 0.363; under GUCCUCUUUCACGUGCGCGUGAAAGAGAGAGGUGAUCCAGAGAAACACACGUUGUGGUAUAUUACCUGGUA [A31G A36U], 0.306. Consider GUCCUCUUUCACGUGCGCGUGAAAGAGAGACGUGAACCAGAGAAACACACGUUGUGGUAUAUUACUUGGUA [A31C C66U], for which the self-cleavage was 0.225. For the variant GUCCUCUUUCACGUGCGCGUGAAAGAGAGAGGUGAACCAGAGAAACACACGUUGUGGUCUAUUACCUGGUA [A31G A59C], the self-cleavage is 0.173. Under GUCCUCUUUCACGUGCGCGUGAAAGAGAGACGUGAACCAGAGAAACACACGUUGUGGUAUUUUACCUGGUA [A31C A61U] stands 0.0706; under GUCCUCUUUCACGUGCGCGUGAAAGAGAGACGUGAACCAGAGAAACACACGUUGUGGUAUCUUACCUGGUA [A31C A61C], 0.194. On to GUCCUCUUUCACGUGCGCGUGAAAGAGAGAGGUGAACCAGAGAAACACACGUGGUGGUAUAUUACCUGGUA [A31G U53G], for which the self-cleavage is 0.495. In the case of GUCCUCUUUCACGUGCGCGUGAAAGAGAGACGUGAACCAGAGAAACACACGUUGUGGUAUAUUACCUGGGA [A31C U70G], the self-cleavage was determined as 0.0868. The same measure for GUCCUCUUUCACGUGCGCGUGAAAGAGAGAGGUGAACCAGAGAAACAAACGUUGUGGUAUAUUACCUGGUA [A31G C48A]: 0.164; for GUCCUCUUUCACGUGCGCGUGAAAGAGAGACGUGAACCAGAGAAACACACGUUGGGGUAUAUUACCUGGUA [A31C U55G]: 0.1. Under GUCCUCUUUCACGUGCGCGUGAAAGAGAGAGGUGAACCAGAGAAACACACGUUGUGGUAUUUUACCUGGUA [A31G A61U] stands 0.159; under GUCCUCUUUCACGUGCGCGUGAAAGAGAGAGGUGAACCAGAGAAACACACGUUGUGGUAUCUUACCUGGUA [A31G A61C], 0.16. Under GUCCUCUUUCACGUGCGCGUGAAAGAGAGAGAUGAACCAGAGAAACACACGUUGUGGUAUAUUACCUGGUA [A31G G32A] stands 0.0999; under GUCCUCUUUCACGUGCGCGUGAAAGAGAGAGCUGAACCAGAGAAACACACGUUGUGGUAUAUUACCUGGUA [A31G G32C], 0.0299; under GUCCUCUUUCACGUGCGCGUGAAAGAGAGAGGUGAACGAGAGAAACACACGUUGUGGUAUAUUACCUGGUA [A31G C38G], 0.0773.

Regarding GUCCUCUUUCACGUGCGCGUGAAAGAGAGAGGUGAACUAGAGAAACACACGUUGUGGUAUAUUACCUGGUA [A31G C38U], the self-cleavage worked out at 0.272. The same measure for GUCCUCUUUCACGUGCGCGUGAAAGAGAGACGUGAACCAGAGAAACACACAUUGUGGUAUAUUACCUGGUA [A31C G51A]: 0.179. The same measure for GUCCUCUUUCACGUGCGCGUGAAAGAGAGACGUGAACCAGAGAAACACACGUUGUGGAAUAUUACCUGGUA [A31C U58A]: 0.171; for GUCCUCUUUCACGUGCGCGUGAAAGAGAGACGUGAACCAGAGAAACACACGUUGUGGGAUAUUACCUGGUA [A31C U58G]: 0.131. Under GUCCUCUUUCACGUGCGCGUGAAAGAGAGACGUGAACCAGAGAAACACACGUUGUGGCAUAUUACCUGGUA [A31C U58C] stands 0.247.
